Consider 2 substances from publication PMC10420310, “The Complex Proteolipidic Behavior of the SARS-CoV-2 Envelope Protein Channel: Weak Selectivity and Heterogeneous Oligomerization” (International Journal of Molecular Sciences, 2023).

Several values for one entry are separate records, joined by “and”; a condition that tells them apart may be missing. Equal values may be shown once.

Test [1] deals with truncated SARS-2 E protein corresponding to residues 8–65 with N-terminal 6-His tag (6H-E-TR) (SARS-CoV-2) (UniProt P0DTC4). The experiment in a line: AUC; sedimentation velocity, His-E-TR at DPR 70 in 5 mM C14SB micelles, 50 mM Tris-HCl pH 7.3, 100 mM NaCl, 29.4% D2O, 20 °C, 50,000 rpm.
The target is the same in test [2]. Put plainly: AUC; sedimentation velocity, His-E-TR at DPR 25 in 5 mM C14SB micelles, 50 mM Tris-HCl pH 7.3, 100 mM NaCl, 29.4% D2O, 20 °C, 50,000 rpm.
The target of test [3] is full-length SARS-2 E protein (E-FL) (SARS-CoV-2) (UniProt P0DTC4). The experiment in a line: AUC; sedimentation velocity, E-FL at DPR 125 in 5 mM C14SB micelles, 50 mM Tris-HCl pH 7.3, 100 mM NaCl, 29.4% D2O, 20 °C, 50,000 rpm.

As for “truncated SARS-2 E protein corresponding to residues 8–65 with N-terminal 6-His tag (6H-E-TR) (from UniProt P0DTC4 8-65) (domain or fragment)”, the stoichiometry N in test [1] is 2.56; in test [2], 3. “full-length SARS-2 E protein (E-FL) (from UniProt P0DTC4 1-75) (natural protein)”: the stoichiometry N in test [3] was 2 and 4.6.
